Measurements reported in KR20150001391A.

B1: (2B12+GFP) (protein, part only; not given: linker, GFP, His tag, part only)
chain, part: ESGGGSVQVGESLRLACTASEFTFDDTDVGWYRQAPGNECELVSSINSDGGTYYTDSVKGRFTISLDNGKNTVYLQMDSLKPEDTAVYYCVADAKVKAQALGTLLCRILGNWGQGTQVTVSS
B2: (53A1+GFP) (protein, part only; not given: linker, GFP, His tag, part only)
chain, part: ESGGGSVQVGESLRLACTASEFTFDDTDVGWYRQAPGNECELVSSINSDGGTYYTDSVKGRFTISLDNGKNTVYLQMDSLKPEDTAVYYCVADAKVKAQALGTLLCRILGNWGQGTQVTVSS
B3: (2E9+GFP) (protein, part only; not given: linker, GFP, His tag, part only)
chain, part: ESGGGSVQAGGSLRLSCTASGFTFADSDMGWYRQAPGKERERVAAIDSDGRTSYADSVKGRFTISKDNAKNTLYLQMNSLKPEDTAMYYCAAGVPTYDSSWCSRDYWGKGTQVTVSS
B4: (2B12+RFP) (protein, part only; not given: linker, RFP, His tag, part only)
chain, part: ESGGGSVQVGESLRLACTASEFTFDDTDVGWYRQAPGNECELVSSINSDGGTYYTDSVKGRFTISLDNGKNTVYLQMDSLKPEDTAVYYCVADAKVKAQALGTLLCRILGNWGQGTQVTVSS
B5: (53A1+RFP) (protein, part only; not given: linker, RFP, His tag, part only)
chain, part: ESGGGSVQVGESLRLACTASEFTFDDTDVGWYRQAPGNECELVSSINSDGGTYYTDSVKGRFTISLDNGKNTVYLQMDSLKPEDTAVYYCVADAKVKAQALGTLLCRILGNWGQGTQVTVSS
B6: (2E9+RFP) (protein, part only; not given: linker, RFP, His tag, part only)
chain, part: ESGGGSVQAGGSLRLSCTASGFTFADSDMGWYRQAPGKERERVAAIDSDGRTSYADSVKGRFTISKDNAKNTLYLQMNSLKPEDTAMYYCAAGVPTYDSSWCSRDYWGKGTQVTVSS

Molecular target: M13 박테리오파지에서 전시되는 스트렙타비딘(streptavidin)
Assay: fluorescence ELISA; plate coated with streptavidin-displaying M13 phage; fusion protein at 10, 50, 100 μg/ml; ex 395 nm / em 509 nm; reference is biotin-bound GFP

Fold fluorescence against biotin-bound GFP, 2 배 (fold):
B1
B2
B3

Molecular target: M13 박테리오파지에서 전시되는 스트렙타비딘(streptavidin)
Assay: fluorescence ELISA; plate coated with streptavidin-displaying M13 phage; fusion protein at 10, 50, 100 μg/ml; ex 554 nm / em 581 nm; reference is biotin-bound RFP

Fold fluorescence against biotin-bound RFP, 2 배 (fold):
B4
B5
B6
